Test results taken from article PMC2117344, “A New In Vitro Strand Transfer Assay for Monitoring Bacterial Class 1 Integron Recombinase IntI1 Activity”.

Target: T1, IntI1(his)6 wild type (Pseudomonas aeruginosa Pa695 (class 1 …, UniProt Q7BP41 1-337))
T1 sequence: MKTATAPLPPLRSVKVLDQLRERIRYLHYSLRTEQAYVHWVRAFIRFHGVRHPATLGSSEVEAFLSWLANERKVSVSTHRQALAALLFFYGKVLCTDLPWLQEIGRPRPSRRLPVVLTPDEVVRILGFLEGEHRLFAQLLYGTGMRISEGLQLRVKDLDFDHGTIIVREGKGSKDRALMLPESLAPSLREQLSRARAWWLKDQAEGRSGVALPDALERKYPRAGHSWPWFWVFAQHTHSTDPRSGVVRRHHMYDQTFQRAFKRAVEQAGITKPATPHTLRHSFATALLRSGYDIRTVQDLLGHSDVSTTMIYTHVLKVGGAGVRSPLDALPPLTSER
Test: EMSA; 20 min at 4 C in 20 ul, 0.1 pmol DNA, 1-10 pmol IntI1, 1% agarose gel at 4 C; filter wash buffer 20 mM HEPES pH 7.5, 10 mM MnCl2, 30 mM NaCl (pre-wash 10 mM NaCl, 100 ug/ml calf thymus DNA); exact binding buffer not given
Settings: protein: recombinant, tags: C-terminal His6 (pET101D-Topo), label: 5' 32P

B1: attC bottom strand (attCbs) (ssDNA)
DNA: AGTGCATCTAACGCCTGAGTTAAGCCGCGGTGCGCAGTGGCAAGCGGCGTGCGAAGCTTAGCGTAGCACGCAAGCGCCGCCACGAAGCAACGTCGGCTTGAACGAATTGTTAGACGGGCG
B1: binds (single strand).

B2: attC top strand (attCts) (ssDNA)
DNA: CGCCCGTCTAACAATTCGTTCAAGCCGACGTTGCTTCGTGGCGGCGCTTGCGTGCTACGCTAAGCTTCGCACGCCGCTTGCCACTGCGCACCGCGGCTTAACTCAGGCGTTAGATGCACT
B2: no binding (single strand).

B3: attI1ds (dsDNA)
DNA 1: ACGCCGTGGGTCGATGTTTGATGTTATGGAGCAGCAACGATGTTACGCAGCAGGGCAGTCGCCCTAAAACAAAGTTAGGTGGCTCAATGAGCATCATTGC
DNA 2: GCAATGATGCTCATTGAGCCACCTAACTTTGTTTTAGGGCGACTGCCCTGCTGCGTAACATCGTTGCTGCTCCATAACATCAAACATCGACCCACGGCGT
B3: binds (blunt).
